B1: PR5 promoter HSE probe (dsDNA)
DNA 1: GGAACTGATTCCCTAAAACAGAAAAGAATGTATGAACCTTCCTAAAATAC
DNA 2: GTATTTTAGGAAGGTTCATACATTCTTTTCTGTTTTAGGGAATCAGTTCC
B2: PR2 promoter HSE probe (dsDNA)
DNA 1: CATCTCAATATCAATATTTAAGAACTTTCTAATAAAATCATCCTTATCCGG
DNA 2: CCGGATAAGGATGATTTTATTAGAAAGTTCTTAAATATTGATATTGAGATG
B3: PR1 promoter HSE probe (dsDNA)
DNA 1: GGCCCGCATGAGTTACAACAAGAAGAAATTTCAAATATTGCTCTCCGTGG
DNA 2: CCACGGAGAGCAATATTTGAAATTTCTTCTTGTTGTAACTCATGCGGGCC

Target: VvHSP24 (class B HSP/HSF, AtHSFB1 ortholog) (Vitis vinifera, UniProt A0ACM8QKQ1 1-286)
Test: EMSA; LightShift chemiluminescent EMSA kit (Pierce); buffer, salt, pH and temperature not stated; 200-fold mutant competitor
Conditions: protein: recombinant; tags: His (pCzn1); label: 5' biotin

Sequence of VvHSP24 (class B HSP/HSF, AtHSFB1 ortholog) (A0ACM8QKQ1 entry or part of it): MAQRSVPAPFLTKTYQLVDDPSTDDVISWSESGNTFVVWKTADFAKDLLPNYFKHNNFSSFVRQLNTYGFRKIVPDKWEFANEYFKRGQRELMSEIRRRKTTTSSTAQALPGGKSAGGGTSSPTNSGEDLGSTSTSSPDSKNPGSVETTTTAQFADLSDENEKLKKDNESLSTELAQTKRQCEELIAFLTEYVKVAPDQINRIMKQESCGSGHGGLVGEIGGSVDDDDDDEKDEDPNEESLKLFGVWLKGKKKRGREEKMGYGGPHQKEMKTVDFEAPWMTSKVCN

| Binder | binding result |
| --- | --- |
| B1 | no binding |
| B2 | no binding |
| B3 | no binding |

From article PMC7984168, “Heat Shock Protein HSP24 Is Involved in the BABA-Induced Resistance to Fungal Pathogen in Postharvest Grapes Underlying an NPR1-Dependent Manner”
